Results published in patent US20140087995A1 (published 2014).
Numbered stars: 1 amine (or outer) side, 2 acyl side, 3 side chain; on linkers, the order of the positions; unused ones are H or OH. Bridge positions count the residues as written; N and C are the ends. Side chains are listed from the residue outwards. Ends that are not written are not given here. * marks the point of attachment. C20 diacid = O=C(O)CCCCCCCCCCCCCCCCCCC(=O)*; γGlu = O=C(O)[C@H](CCC(=O)[*:2])N[*:1]; AEEA = NCCOCCOCC(=O)O

T1: human amylin receptor (amylin 3(a) receptor: human calcitonin receptor with RAMP-3) (human, UniProt P30988 25-474; O60896 24-148)
T1 construct: whole, on cells; also called hAmylin-R; hAmylinR
T1 sequence (looked up) 1: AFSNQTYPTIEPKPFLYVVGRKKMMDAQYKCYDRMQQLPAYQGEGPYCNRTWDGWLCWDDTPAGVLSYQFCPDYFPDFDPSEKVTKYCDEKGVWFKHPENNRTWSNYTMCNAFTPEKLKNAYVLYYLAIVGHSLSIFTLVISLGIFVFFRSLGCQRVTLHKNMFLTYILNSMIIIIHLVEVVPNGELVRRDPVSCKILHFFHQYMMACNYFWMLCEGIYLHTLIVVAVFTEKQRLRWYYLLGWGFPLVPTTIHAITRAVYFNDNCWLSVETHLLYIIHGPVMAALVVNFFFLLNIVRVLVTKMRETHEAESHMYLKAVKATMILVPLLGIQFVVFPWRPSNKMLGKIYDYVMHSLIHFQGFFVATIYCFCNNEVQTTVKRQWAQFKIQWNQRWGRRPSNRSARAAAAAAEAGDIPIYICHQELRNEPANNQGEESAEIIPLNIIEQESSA
T1 sequence (looked up) 2: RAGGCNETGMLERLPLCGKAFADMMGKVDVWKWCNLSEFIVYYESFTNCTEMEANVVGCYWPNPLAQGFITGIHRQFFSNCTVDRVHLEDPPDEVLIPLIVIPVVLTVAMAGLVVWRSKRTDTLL


target: T1, human amylin receptor (amylin 3(a) …); test: SPA displacement of 125I-rat amylin, hAmylin 3(a) receptor membranes
Outline: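 Cell membranes were prepared by homogenisation in Na-HEPES/EDTA buffer, pH 7.4, and stored at −80° C. They were then coupled to SPA beads at 35 ng/μL final and exposed to compounds in assay buffer containing CaCl2, MgCl₂, OA and Tween20. After 120 min at 25° C, plates were counted and IC₅₀ derived.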

| Binder | IC50 [nM] |
| --- | --- |
| K([AEEA-γGlu-C20 diacid])CNTATCATQRLAKFLRHSSPNFGAIPSSTPVGSNTY-NH2 (disulfide 2-7; N-terminus assumed; SMILES CC[C@H](C)[C@H](NC(=O)[C@H](C)NC(=O)CNC(=O)[C@H](Cc1ccccc1)NC(=O)[C@H](CC(N)=O)NC(=O)[C@@H]1CCCN1C(=O)[C@H](CO)NC(=O)[C@H](CO)NC(=O)[C@H](Cc1c[nH]cn1)NC(=O)[C@H](CCCNC(=N)N)NC(=O)[C@H](CC(C)C)NC(=O)[C@H](Cc1ccccc1)NC(=O)[C@H](CCCCN)NC(=O)[C@H](C)NC(=O)[C@H](CC(C)C)NC(=O)[C@H](CCCNC(=N)N)NC(=O)[C@H](CCC(N)=O)NC(=O)[C@@H](NC(=O)[C@H](C)NC(=O)[C@@H]1CSSC[C@H](NC(=O)[C@@H](N)CCCCNC(=O)COCCOCCNC(=O)CC[C@H](NC(=O)CCCCCCCCCCCCCCCCCCC(=O)O)C(=O)O)C(=O)N[C@@H](CC(N)=O)C(=O)N[C@@H]([C@@H](C)O)C(=O)N[C@@H](C)C(=O)N[C@@H]([C@@H](C)O)C(=O)N1)[C@@H](C)O)C(=O)N1CCC[C@H]1C(=O)N[C@@H](CO)C(=O)N[C@@H](CO)C(=O)N[C@H](C(=O)N1CCC[C@H]1C(=O)N[C@H](C(=O)NCC(=O)N[C@@H](CO)C(=O)N[C@@H](CC(N)=O)C(=O)N[C@H](C(=O)N[C@@H](Cc1ccc(O)cc1)C(N)=O)[C@@H](C)O)C(C)C)[C@@H](C)O, also called 74; compound 74) | 0.791 |
| K([AEEA-γGlu-C20 diacid])CNTATCATQRLATFLRHSSPNFGAIPSSTPVGSNTY-NH2 (disulfide 2-7; N-terminus assumed; SMILES CC[C@H](C)[C@H](NC(=O)[C@H](C)NC(=O)CNC(=O)[C@H](Cc1ccccc1)NC(=O)[C@H](CC(N)=O)NC(=O)[C@@H]1CCCN1C(=O)[C@H](CO)NC(=O)[C@H](CO)NC(=O)[C@H](Cc1c[nH]cn1)NC(=O)[C@H](CCCNC(=N)N)NC(=O)[C@H](CC(C)C)NC(=O)[C@H](Cc1ccccc1)NC(=O)[C@@H](NC(=O)[C@H](C)NC(=O)[C@H](CC(C)C)NC(=O)[C@H](CCCNC(=N)N)NC(=O)[C@H](CCC(N)=O)NC(=O)[C@@H](NC(=O)[C@H](C)NC(=O)[C@@H]1CSSC[C@H](NC(=O)[C@@H](N)CCCCNC(=O)COCCOCCNC(=O)CC[C@H](NC(=O)CCCCCCCCCCCCCCCCCCC(=O)O)C(=O)O)C(=O)N[C@@H](CC(N)=O)C(=O)N[C@@H]([C@@H](C)O)C(=O)N[C@@H](C)C(=O)N[C@@H]([C@@H](C)O)C(=O)N1)[C@@H](C)O)[C@@H](C)O)C(=O)N1CCC[C@H]1C(=O)N[C@@H](CO)C(=O)N[C@@H](CO)C(=O)N[C@H](C(=O)N1CCC[C@H]1C(=O)N[C@H](C(=O)NCC(=O)N[C@@H](CO)C(=O)N[C@@H](CC(N)=O)C(=O)N[C@H](C(=O)N[C@@H](Cc1ccc(O)cc1)C(N)=O)[C@@H](C)O)C(C)C)[C@@H](C)O, also called 75; compound 75) | 0.666 |
| K([γGlu-C20 diacid])CNTATCATQRLARFLRHSSPNFGAIPSSTPVGSNTY-NH2 (disulfide 2-7; N-terminus assumed; SMILES CC[C@H](C)[C@H](NC(=O)[C@H](C)NC(=O)CNC(=O)[C@H](Cc1ccccc1)NC(=O)[C@H](CC(N)=O)NC(=O)[C@@H]1CCCN1C(=O)[C@H](CO)NC(=O)[C@H](CO)NC(=O)[C@H](Cc1c[nH]cn1)NC(=O)[C@H](CCCNC(=N)N)NC(=O)[C@H](CC(C)C)NC(=O)[C@H](Cc1ccccc1)NC(=O)[C@H](CCCNC(=N)N)NC(=O)[C@H](C)NC(=O)[C@H](CC(C)C)NC(=O)[C@H](CCCNC(=N)N)NC(=O)[C@H](CCC(N)=O)NC(=O)[C@@H](NC(=O)[C@H](C)NC(=O)[C@@H]1CSSC[C@H](NC(=O)[C@@H](N)CCCCNC(=O)CC[C@H](NC(=O)CCCCCCCCCCCCCCCCCCC(=O)O)C(=O)O)C(=O)N[C@@H](CC(N)=O)C(=O)N[C@@H]([C@@H](C)O)C(=O)N[C@@H](C)C(=O)N[C@@H]([C@@H](C)O)C(=O)N1)[C@@H](C)O)C(=O)N1CCC[C@H]1C(=O)N[C@@H](CO)C(=O)N[C@@H](CO)C(=O)N[C@H](C(=O)N1CCC[C@H]1C(=O)N[C@H](C(=O)NCC(=O)N[C@@H](CO)C(=O)N[C@@H](CC(N)=O)C(=O)N[C@H](C(=O)N[C@@H](Cc1ccc(O)cc1)C(N)=O)[C@@H](C)O)C(C)C)[C@@H](C)O, also called 63; compound 63) | 0.825 |

The next binders have a lower IC50 than those just listed; values first:

| IC50 [nM] | Binder |
| --- | --- |
| 0.176 | K([γGlu-C20 diacid])CNTATCATQRLAAFLRHSSPNFGAIPSSTNVGHNTY-NH2 (disulfide 2-7; N-terminus assumed; SMILES CC[C@H](C)[C@H](NC(=O)[C@H](C)NC(=O)CNC(=O)[C@H](Cc1ccccc1)NC(=O)[C@H](CC(N)=O)NC(=O)[C@@H]1CCCN1C(=O)[C@H](CO)NC(=O)[C@H](CO)NC(=O)[C@H](Cc1c[nH]cn1)NC(=O)[C@H](CCCNC(=N)N)NC(=O)[C@H](CC(C)C)NC(=O)[C@H](Cc1ccccc1)NC(=O)[C@H](C)NC(=O)[C@H](C)NC(=O)[C@H](CC(C)C)NC(=O)[C@H](CCCNC(=N)N)NC(=O)[C@H](CCC(N)=O)NC(=O)[C@@H](NC(=O)[C@H](C)NC(=O)[C@@H]1CSSC[C@H](NC(=O)[C@@H](N)CCCCNC(=O)CC[C@H](NC(=O)CCCCCCCCCCCCCCCCCCC(=O)O)C(=O)O)C(=O)N[C@@H](CC(N)=O)C(=O)N[C@@H]([C@@H](C)O)C(=O)N[C@@H](C)C(=O)N[C@@H]([C@@H](C)O)C(=O)N1)[C@@H](C)O)C(=O)N1CCC[C@H]1C(=O)N[C@@H](CO)C(=O)N[C@@H](CO)C(=O)N[C@H](C(=O)N[C@@H](CC(N)=O)C(=O)N[C@H](C(=O)NCC(=O)N[C@@H](Cc1c[nH]cn1)C(=O)N[C@@H](CC(N)=O)C(=O)N[C@H](C(=O)N[C@@H](Cc1ccc(O)cc1)C(N)=O)[C@@H](C)O)C(C)C)[C@@H](C)O, also called 93; compound 93) |
| 0.148 | K([γGlu-C20 diacid])CNTATCATQRLAAFLRHSSPNFGAIPSSTNVGPNTY-NH2 (disulfide 2-7; N-terminus assumed; SMILES CC[C@H](C)[C@H](NC(=O)[C@H](C)NC(=O)CNC(=O)[C@H](Cc1ccccc1)NC(=O)[C@H](CC(N)=O)NC(=O)[C@@H]1CCCN1C(=O)[C@H](CO)NC(=O)[C@H](CO)NC(=O)[C@H](Cc1c[nH]cn1)NC(=O)[C@H](CCCNC(=N)N)NC(=O)[C@H](CC(C)C)NC(=O)[C@H](Cc1ccccc1)NC(=O)[C@H](C)NC(=O)[C@H](C)NC(=O)[C@H](CC(C)C)NC(=O)[C@H](CCCNC(=N)N)NC(=O)[C@H](CCC(N)=O)NC(=O)[C@@H](NC(=O)[C@H](C)NC(=O)[C@@H]1CSSC[C@H](NC(=O)[C@@H](N)CCCCNC(=O)CC[C@H](NC(=O)CCCCCCCCCCCCCCCCCCC(=O)O)C(=O)O)C(=O)N[C@@H](CC(N)=O)C(=O)N[C@@H]([C@@H](C)O)C(=O)N[C@@H](C)C(=O)N[C@@H]([C@@H](C)O)C(=O)N1)[C@@H](C)O)C(=O)N1CCC[C@H]1C(=O)N[C@@H](CO)C(=O)N[C@@H](CO)C(=O)N[C@H](C(=O)N[C@@H](CC(N)=O)C(=O)N[C@H](C(=O)NCC(=O)N1CCC[C@H]1C(=O)N[C@@H](CC(N)=O)C(=O)N[C@H](C(=O)N[C@@H](Cc1ccc(O)cc1)C(N)=O)[C@@H](C)O)C(C)C)[C@@H](C)O, also called 94; compound 94) |
| 0.104 | K([AEEA-γGlu-C20 diacid])CNTATCATQRLASFLRHSSPNFGAIPSSTPVGSNTY-NH2 (disulfide 2-7; N-terminus assumed; SMILES CC[C@H](C)[C@H](NC(=O)[C@H](C)NC(=O)CNC(=O)[C@H](Cc1ccccc1)NC(=O)[C@H](CC(N)=O)NC(=O)[C@@H]1CCCN1C(=O)[C@H](CO)NC(=O)[C@H](CO)NC(=O)[C@H](Cc1c[nH]cn1)NC(=O)[C@H](CCCNC(=N)N)NC(=O)[C@H](CC(C)C)NC(=O)[C@H](Cc1ccccc1)NC(=O)[C@H](CO)NC(=O)[C@H](C)NC(=O)[C@H](CC(C)C)NC(=O)[C@H](CCCNC(=N)N)NC(=O)[C@H](CCC(N)=O)NC(=O)[C@@H](NC(=O)[C@H](C)NC(=O)[C@@H]1CSSC[C@H](NC(=O)[C@@H](N)CCCCNC(=O)COCCOCCNC(=O)CC[C@H](NC(=O)CCCCCCCCCCCCCCCCCCC(=O)O)C(=O)O)C(=O)N[C@@H](CC(N)=O)C(=O)N[C@@H]([C@@H](C)O)C(=O)N[C@@H](C)C(=O)N[C@@H]([C@@H](C)O)C(=O)N1)[C@@H](C)O)C(=O)N1CCC[C@H]1C(=O)N[C@@H](CO)C(=O)N[C@@H](CO)C(=O)N[C@H](C(=O)N1CCC[C@H]1C(=O)N[C@H](C(=O)NCC(=O)N[C@@H](CO)C(=O)N[C@@H](CC(N)=O)C(=O)N[C@H](C(=O)N[C@@H](Cc1ccc(O)cc1)C(N)=O)[C@@H](C)O)C(C)C)[C@@H](C)O, also called 73; compound 73) |
